# Test results reported in publication PMC9712106 (2022).
# T1: PTRAMP–CSS heterodimer (disulfide-linked PfPTRAMP 42–309 and PfCSS 20–290) (P. falciparum)
# T1 chain 1: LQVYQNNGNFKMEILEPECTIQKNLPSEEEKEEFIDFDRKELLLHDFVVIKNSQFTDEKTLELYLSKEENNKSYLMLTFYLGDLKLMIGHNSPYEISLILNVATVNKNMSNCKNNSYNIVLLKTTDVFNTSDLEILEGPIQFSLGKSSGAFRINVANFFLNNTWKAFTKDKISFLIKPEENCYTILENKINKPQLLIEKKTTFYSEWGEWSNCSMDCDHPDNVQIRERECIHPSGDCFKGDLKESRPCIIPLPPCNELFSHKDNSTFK
# T1 chain 2: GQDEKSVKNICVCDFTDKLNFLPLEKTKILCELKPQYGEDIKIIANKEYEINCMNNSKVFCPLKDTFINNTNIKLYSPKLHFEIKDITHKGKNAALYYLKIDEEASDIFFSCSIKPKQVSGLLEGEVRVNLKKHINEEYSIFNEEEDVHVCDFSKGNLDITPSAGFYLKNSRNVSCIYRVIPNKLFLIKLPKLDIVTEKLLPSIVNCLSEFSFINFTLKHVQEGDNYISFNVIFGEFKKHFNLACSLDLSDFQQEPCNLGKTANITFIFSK
# B1: PfCSS (residues 20 to 290) (domain or fragment)
# chain: T1 chain 2
# modifications: N-linked glycan on Asn88 (seen in the crystal structure)
# B2: anti-PfPTRAMP nanobody H10 (VHH)
# VHH: QVQLQESGGGLVQPGGSLRLSCAASGFTFDNYWMYWVRQAPGKGLEWVSAINTVGSHTYYADSVKGRFTISRDNAKNTLYLQMNSLKSEDTAVYYCAKGPWGFGTSGWGEMDYWGKGTQVTVSS
# B3: anti-PfPTRAMP nanobody H8 (VHH)
# VHH: QVQLQESGGGLVQPGGSLRLSCAASGFTFSSYWMYWVRQAPGKGLEWVSAINTGGGSTAYADSVKGRFTISRDNAKNTLYLQMNSLKSDDTAVYYCVKARGSSWSDRVFDYWGQGTQVTVSS
# B4: anti-PfCSS nanobody C10 (VHH)
# VHH: QVQLQESGGGLVQAGGSLRLSCVASGRTFSNDAMGWFRQAPGKEREFVAAATRNGLGTGYADSVKGRFTISRDNAKNTVYLQMNSLKPEDTAVYYCAAASDAYYSNQRAAYDYWGQGTQVTVSS
# B5: anti-PfCSS nanobody C1 (VHH)
# VHH: QVQLQESGGGLVQAGGSLRLSCAASGRSFSSYAMGWFSQAPGKEREFVAAISWNGGSTYYADSVKGRFTISRNNAKNTVYLQMNSLKPEDTAVYYCAATEPEIYISTMAEGYDYWGQGTQVTVSS
# B6: anti-PfCSS nanobody F7 (VHH)
# VHH: QVQLQESGGGSVQVGDSLSLSCVASGRTFSTYALGWFRQAPGKEREFVAAASANGKVAPVTGSLRDRFSISRDNAKNTMYLQMNNLKPEDTAVYYCAAATGSEVFISTSPNVYDIWGQGTQVTVSS
# B7: D2 nanobody (anti-PfCSS, inhibitory) (VHH)
# VHH: QVQLQESGGGLVQAGGSLRLSCAASGRTFSSYAMGWFRQAPGKEREFVAAISYSGSNTYDADSVKGRFAISRDNAKNTVYLQMNSLKPEDTAVYYCAAAGVYSGTYTDTEFDYWGQGTQVTVSS
# B8: anti-PfCSS nanobody B6 (VHH)
# VHH: QVQLQESGGGLVQAGGSLRLSCAASGRTFSRYAMGWFRQAPGKEREFVAAISWSGGSTTYADSVKGRFTISRDNAKNTVYLQMNSLKPEDTAVYYCAAGDFIIGNMASEYEYWGQGTQVTVSS
# B9: anti-PfCSS nanobody F1 (VHH)
# VHH: QVQLQESGGGLVQAGGPLRLSCVASGRTFSLHLMGWFRQAPGKEREFVAAISGSGGSTYYADSVKGRFTISRDNAKNTVYLQMNSLKPEDTAVYYCAADLENYMSTMLDGYNYWGQGTQVTVSS
# B10: anti-PfCSS nanobody G5 (VHH)
# VHH: QVQLQESGGGLVQAGGSLRLSCVASGRTFSSYGMGWFRQAPGKEREFVSAISSDAASRHYANSVKGRFTISRDNAKNTVTLQMSSLTPEDTAVYYCAAVHAYYSNYDGHYDYWGQGTQVTVSS
# B11: H2 nanobody (anti-PfCSS, non-inhibitory) (VHH)
# VHH: QVQLQESGGGLVQPGGSLRLSCAASGSIFSTNAMGWYRQAPGKQREQVATITSGSSTNYADSVKGRFTISRDNAKNTVYLQMNSLKPEDTAVYYCNAAGATIDLADFGSWGQGTQVTVSS
# B12: anti-PfCSS nanobody E12 (VHH)
# VHH: QVQLQESGGGLVQAGGSLRLSCVASTRTFGNYAMAWFRQAPGKEREFVTTISASGGNTGAAPSVKGRFAISRDNAKNTVYLQMNSLKPEDTAVYYCAAASAYYSNDPARYTYWGQGTQVTVSS
# B13: anti-PfCSS nanobody B1 (VHH)
# VHH: QVQLQESGGGLVQYGGSLRLSCAASGRTFSSYSMGWFRQAPGKEREFVAAISWTGGNTYYLGSTEGRFTISRDNAKNTVFLQMNNLKPEDTAVYYCAAKGRGSSWPTYDYRGQGTQVTVSS
# B14: anti-PfCSS nanobody D1 (VHH)
# VHH: QVQLQESGGGLVQAGGSLRLSCAASGRTFSSLAMGWFRQPPGKEREFVAAISYSSGSTYYADSVKGRFTISRDNAKNTVYLQMNSLKPEDTAVYYCAVTPPDTYISTMGHEYDYWGQGTQVTVSS
# B15: anti-PfCSS nanobody D9 (VHH)
# VHH: QVQLQESGGGLVQAGGSLTLSCAASGRTFSRSAMGWFRQAPGKGREFVAAISSGDTSTYYMDSVKGRFTISRDSSKNTVYLQMNNLRPEDTAVYYCAADPKSYITTMISEYDIWGQGTQVTVSS
# B16: anti-PfCSS nanobody C9 (VHH)
# VHH: QVQLQESGGGLVQAGDSLRLSCAASGRTFSSYAMGWFRQAPGKEREFVAAIAWNGGSTYYQDSVKGRFTISRDNAKNTVYLQMNSLKPEDTAVYYCAADDSYMSTMIHEYDYWGQGTQVTVSS
# Target: T2, PfPTRAMP (residues 42 to 309), PMX cleaved ectodomain (P. falciparum, UniProt Q8I5M8)
# Experiment: BLI
row,Binder,Kd [nM]
1,B1,19000

# Target: T2, PfPTRAMP (residues 42 to 309), PMX …
# Experiment: BLI
# Remark: another data set of the same source
row,Binder,Kd [nM]
1,B2,530
2,B3,400

# Target: B1
# Experiment: BLI
row,Binder,Kd [nM]
1,B4,1.5
2,B5,0.99
3,B6,5
4,B7,4.4
5,B8,0.66
6,B9,3.5
7,B10,4.9
8,B11,0.88
9,B12,12
10,B13,4
11,B14,2.6
12,B15,4.4
13,B16,6.5

# Target: T1, PTRAMP–CSS heterodimer …
# Experiment: BLI
row,Binder,Kd [nM]
1,B4,12
2,B5,6.8
3,B6,9.9
4,B8,2.5
5,B9,9.9
6,B10,7
7,B2,390
8,B12,16
9,B13,5.6
10,B14,9
11,B15,11
12,B16,12
13,B3,410
